We go through 1 protein from ChEMBL document CHEMBL1649076, “Discovery of 5-chloro-N2-[(1S)-1-(5-fluoropyrimidin-2-yl)ethyl]-N4-(5-methyl-1H-pyrazol-3-yl)pyrimidine-2,4-diamine (AZD1480) as a novel inhibitor of the Jak/Stat pathway” (J Med Chem, 2011).

As a reminder, the Km is the substrate concentration at which the rate is half of its maximum.

Substrate in the series: Cc1cc(Nc2nc(N[C@H](C)c3ncc(F)cn3)ncc2Cl)n[nH]1

Description: Inhibition of JAK2 using Km ATP concentration

B1: Tyrosine-protein kinase JAK2 (Homo sapiens), O60674 (protein)
chain: MGMACLTMTEMEGTSTSSIYQNGDISGNANSMKQIDPVLQVYLYHSLGKSEADYLTFPSGEYVAEEICIAASKACGITPVYHNMFALMSETERIWYPPNHVFHIDESTRHNVLYRIRFYFPRWYCSGSNRAYRHGISRGAEAPLLDDFVMSYLFAQWRHDFVHGWIKVPVTHETQEECLGMAVLDMMRIAKENDQTPLAIYNSISYKTFLPKCIRAKIQDYHILTRKRIRYRFRRFIQQFSQCKATARNLKLKYLINLETLQSAFYTEKFEVKEPGSGPSGEEIFATIIITGNGGIQWSRGKHKESETLTEQDLQLYCDFPNIIDVSIKQANQEGSNESRVVTIHKQDGKNLEIELSSLREALSFVSLIDGYYRLTADAHHYLCKEVAPPAVLENIQSNCHGPISMDFAISKLKKAGNQTGLYVLRCSPKDFNKYFLTFAVERENVIEYKHCLITKNENEEYNLSGTKKNFSSLKDLLNCYQMETVRSDNIIFQFTKCCPPKPKDKSNLLVFRTNGVSDVPTSPTLQRPTHMNQMVFHKIRNEDLIFNESLGQGTFTKIFKGVRREVGDYGQLHETEVLLKVLDKAHRNYSESFFEAASMMSKLSHKHLVLNYGVCVCGDENILVQEFVKFGSLDTYLKKNKNCINILWKLEVAKQLAWAMHFLEENTLIHGNVCAKNILLIREEDRKTGNPPFIKLSDPGISITVLPKDILQERIPWVPPECIENPKNLNLATDKWSFGTTLWEICSGGDKPLSALDSQRKLQFYEDRHQLPAPKWAELANLINNCMDYEPDFRPSFRAIIRDLNSLFTPDYELLTENDMLPNMRIGALGFSGAFEDRDPTQFEERHLKFLQQLGKGNFGSVEMCRYDPLQDNTGEVVAVKKLQHSTEEHLRDFEREIEILKSLQHDNIVKYKGVCYSAGRRNLKLIMEYLPYGSLRDYLQKHKERIDHIKLLQYTSQICKGMEYLGTKRYIHRDLATRNILVENENRVKIGDFGLTKVLPQDKEYYKVKEPGESPIFWYAPESLTESKFSVASDVWSFGVVLYELFTYIEKSKSPPAEFMRMIGNDKQGQMIVFHLIELLKNNGRLPRPDGCPDEIYMIMTECWNNNVNQRPSFRDLALRVDQIRDNMAG
Take B1: the Km was 0.031 µM.
